Tests used:
ApoER2 [1] = target: T1, ApoER2 (Mus musculus, UniProt Q924X6); test: Confocal microscopy of cell surface binding of sclerostin to ApoER2; type: cell-based; conditions: GFP‐ApoER2 overexpressed RAW 264.7, sclerostin 1 µM for 12 h; Figure 6C
T1 construct: FLAG; expressed in transfected cells; host or cells: RAW264.7
T1 sequence (Q924X6 29-996): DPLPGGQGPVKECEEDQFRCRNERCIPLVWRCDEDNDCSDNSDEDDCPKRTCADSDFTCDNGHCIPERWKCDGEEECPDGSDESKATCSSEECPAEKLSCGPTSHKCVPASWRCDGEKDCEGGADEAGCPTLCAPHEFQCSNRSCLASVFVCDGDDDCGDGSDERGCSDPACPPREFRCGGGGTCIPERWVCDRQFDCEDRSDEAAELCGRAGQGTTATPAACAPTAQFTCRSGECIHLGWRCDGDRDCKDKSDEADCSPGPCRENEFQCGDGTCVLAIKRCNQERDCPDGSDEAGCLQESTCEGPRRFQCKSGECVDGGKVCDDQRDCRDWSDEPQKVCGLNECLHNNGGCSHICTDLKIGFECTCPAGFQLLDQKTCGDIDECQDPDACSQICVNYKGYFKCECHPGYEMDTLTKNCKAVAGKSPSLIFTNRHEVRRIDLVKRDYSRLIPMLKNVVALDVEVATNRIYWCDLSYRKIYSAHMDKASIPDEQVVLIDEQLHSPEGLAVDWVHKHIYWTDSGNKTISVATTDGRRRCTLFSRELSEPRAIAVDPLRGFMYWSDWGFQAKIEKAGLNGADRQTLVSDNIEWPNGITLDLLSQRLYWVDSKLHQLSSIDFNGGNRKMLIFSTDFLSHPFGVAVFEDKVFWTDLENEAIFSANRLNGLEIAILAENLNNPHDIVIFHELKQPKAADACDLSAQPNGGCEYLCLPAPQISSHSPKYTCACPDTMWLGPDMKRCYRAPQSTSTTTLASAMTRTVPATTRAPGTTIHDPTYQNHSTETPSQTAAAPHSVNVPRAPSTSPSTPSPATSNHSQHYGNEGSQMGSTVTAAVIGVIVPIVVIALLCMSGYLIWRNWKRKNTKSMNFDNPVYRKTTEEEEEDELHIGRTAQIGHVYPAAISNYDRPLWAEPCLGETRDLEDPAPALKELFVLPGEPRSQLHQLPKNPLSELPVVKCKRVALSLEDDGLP
Method: (§1) The interaction of full‐length (FL)/truncated ApoER2 with full‐length (FL) /truncated sclerostin in macrophages (RAW264.7) were determined by pull‐down assay and Co‐IP assay. The binding affinity of ApoER2 to FL sclerostin and sclerostin loop2 were determined by biolayer interferometry (BLI) analysis. Moreover, the binding of sclerostin to ApoER2 on macrophages (RAW264.7) was examined by confocal microscopy.
GFP‐ApoER2 overexpressed RAW 264.7 cells and GFP‐vector overexpressed RAW 264.7 cells were plated in laser confocal dishes (80 000 cells per well) 12 h before the experiment. The recombinant sclerostin was added to make its final concentration 1 µM for 12 h. Cells were washed three times with PBS and then fixed with 4% paraformaldehyde (PFA) in PBS for 15 min, washed three times, blocked in 10% goat serum for 1 h at room temperature and incubated with anti‐sclerostin primary antibody (Thermo, PA5‐113315, 1:100) overnight at 4 °C. Thereafter, cells were washed with PBS three times, then incubated with goat anti‐rabbit IgG H&L (Alexa Fluor 594, 1:200) for 2 h at 37 °C. Hoechst was used to stain the cell nuclei. The fluorescent images were obtained by a confocal microscope (Leica, STELLARIS STED) equipped with a 405 nm laser, a 488 nm laser, and a 594 nm laser.^[ [67] ^]

ApoER2 [2] = target: T1, ApoER2; test: Pull‐down assay of ApoER2 by His‐tagged full‐length/truncated/mutated sclerostin in macrophages (RAW264.7); type: binding; conditions: RAW264.7 lysate, Ni‐NTA beads, western blot; Figure 6A, S6A
Method: as §1
The interaction residues within ApoER2 to sclerostin loop2 were determined in combination with pull‐down assay and BLI analysis. Based on the interaction residues within ApoER2 to sclerostin loop2, a series of Lrp8 mutations were developed. Based on the interaction residues within sclerostin loop2 to ApoER2, a series of sost mutations were developed.
Cell lysates were collected using RIPA Lysis and Extraction Buffer (Thermo Scientific, 89 901) supplemented with Protease Inhibitor Cocktail (CST, 5871) and centrifuged at 4000 rpm for 30 min at 4 °C, and replaced with binding buffer (PBS buffer, 20 mM imidazole, pH 8.0). […]
The eluted liquid from pull‐down assay was then mixed with SDS‐PAGE loading buffer and boiled for 10 min at 95 °C to make samples. […] The ECL solution (BIO‐RAD, 1 705 061) was used to visualize detected proteins. […]

Cell surface binding of sclerostin to ApoER2 (ApoER2 [1]): observed
Pull‐down of FLAG‐ApoER2 by the His‐tagged protein/peptide (ApoER2 [2]): pulled
Substance: sclerostin: recombinant human/mouse full‐length sclerostin protein

Reference: paper PMC12884772, “Macrophagic Sclerostin Loop2‐ApoER2 Interaction Required by Sclerostin for Cardiovascular Protective Action” (Advanced Science, 2025)
